Patent US20200270588A1, “GLUCOSYL TRANSFERASE POLYPEPTIDES AND METHODS OF USE” (Syngenta Participations AG, priority 2017, published 2020)

Assay: UDP luminescence plate assay of E. coli extracts, saturation mutants of SEQ ID NO: 1, herbicide V
Type: biochemical, Zea mays
Details: improvement factor relative to w/t bx9 = 1.0, rounded to nearest 0.5; extract activity basis; compound V
Method: Competent BL21 (DE3) cells are transformed as in the foregoing examples and, following seed culturing, grown and autoinduced in plates in a 0.5-1 ml volume of autoinduction medium containing 50 ug/ml kanamycin. Plates are incubated at 37° C. and shaken at 900 rpm. Growth is monitored by taking 20 ul aliquots, diluting 10 fold into flat-bottomed 96 well microtiter plates and reading OD600n at t=0, 1, 2, 2½ and 3 hours if necessary. At a (corrected) OD600 nm˜0.2, plates are transferred to 20° C. and shaken overnight at 900 rpm in a Jencons VWR plate incubator. After ˜18-20 h the final OD600 readings are recorded and the plates centrifuged at 4600 rpm (bench top centrifuge) for 10 min at 4° C. The supernatant is discarded and the pellets then washed with 0.25 ml PBS by repeat centrifugation and removal of supernatant before freezing cell pellets at −80° C. To prepare extracts, plates are allowed to thaw for 30 min and then pellets are resuspended in 0.25 ml of a suitable lysis buffer (for example—50 mM Tris HCL buffer at pH 8.0, 5% glycerol containing 50 mM NaCl and lysonase) mixed, incubated at room temperature for a sufficient time for lysis to be near complete and then centrifuged to remove cell debris and 100 ul of supernatant extract removed to a 96 well V-shaped well plate and stored on ice prior to assay.
Optionally plate assays are stopped with brief heating to 95 C before returning to ice and addition of UDP-Glo detection reagent followed by incubation at lab temperature. […] In addition a UDP standard curve is run alongside each set of plate tests.
Making use of the ELISA assay it is then possible to calculate a specific activity (e.g. in Relative Luminescence Units (RLU)/min/ug bx protein) based upon the amount of each mutant bx9 polypeptide expressed in each well. […] The specific activity of the various test mutant extracts on the same plate are then expressed as a fraction of the specific activity of the w/t bx9 and thus the ‘improvement factor’ versus the w/t expressed as a decimal where, for example, ‘0.5’ means half the specific activity of the wild type and 2.0 means twice the specific activity of the wild type. However, as will be readily apparent to the skilled man, particularly in cases where the UDP assay signal was low (with poor signal to noise versus the background) and/or the ELISA measurement of bx protein also low such a method is prone to generate spurious high specific activity numbers and uncertain numbers.

Molecule	Preferred amino acid substitutions and (IF) based on RLU/min/ul	Most Preferred amino acid substitutions and (IF) based on RLU/min/ul
A280V: bx9 SEQ ID NO:1 mutant (protein, Zea mays) MASSRTGAGAGGRVVVFPFPFQGHFNPVMRLARALHARGLAITVFHSGALDPADYPADYRFVPVTVEADPKLLASEDIAAIVTTLNASCDAPFRARLSALLAAEGRDSVRCVFTDVSWNAVLTASSDLGVPALGMMTASAASLRDYMAYRTLIDKGYLPVKEERKEDPVPELPPYLVKDLLRVDTSDLEEFAELLARTVTAARRASGLIFNTFPLIETDTLAEIHKALSVPVFAVAPLNKLVPTATASLHGVVQADRGCLQWLDTQQPGSVLYVSFGSMVAMDPHEFVELAWGLADSKRPFVWVVRPNLIRGFESGALPDGVEDEVRGRGIVVAWAPQEEVLAHPAVGGFLTHNGWNSTVEAISEGVPMVCCPRHGDQFGNMRYVCDVWKVGTELVGEQLERGQVKAAIDRLFGTKEGEEIKERMKEFKIAAAKGIGIGVDVDETASPRTDLTDLVDLIKSF	V(1.0)	–
A281S: bx9 SEQ ID NO:1 mutant (protein, Zea mays) MASSRTGAGAGGRVVVFPFPFQGHFNPVMRLARALHARGLAITVFHSGALDPADYPADYRFVPVTVEADPKLLASEDIAAIVTTLNASCDAPFRARLSALLAAEGRDSVRCVFTDVSWNAVLTASSDLGVPALGMMTASAASLRDYMAYRTLIDKGYLPVKEERKEDPVPELPPYLVKDLLRVDTSDLEEFAELLARTVTAARRASGLIFNTFPLIETDTLAEIHKALSVPVFAVAPLNKLVPTATASLHGVVQADRGCLQWLDTQQPGSVLYVSFGSMASMDPHEFVELAWGLADSKRPFVWVVRPNLIRGFESGALPDGVEDEVRGRGIVVAWAPQEEVLAHPAVGGFLTHNGWNSTVEAISEGVPMVCCPRHGDQFGNMRYVCDVWKVGTELVGEQLERGQVKAAIDRLFGTKEGEEIKERMKEFKIAAAKGIGIGVDVDETASPRTDLTDLVDLIKSF	S,T,V(1.0)	–
I363C: bx9 SEQ ID NO:1 mutant (protein, Zea mays) MASSRTGAGAGGRVVVFPFPFQGHFNPVMRLARALHARGLAITVFHSGALDPADYPADYRFVPVTVEADPKLLASEDIAAIVTTLNASCDAPFRARLSALLAAEGRDSVRCVFTDVSWNAVLTASSDLGVPALGMMTASAASLRDYMAYRTLIDKGYLPVKEERKEDPVPELPPYLVKDLLRVDTSDLEEFAELLARTVTAARRASGLIFNTFPLIETDTLAEIHKALSVPVFAVAPLNKLVPTATASLHGVVQADRGCLQWLDTQQPGSVLYVSFGSMAAMDPHEFVELAWGLADSKRPFVWVVRPNLIRGFESGALPDGVEDEVRGRGIVVAWAPQEEVLAHPAVGGFLTHNGWNSTVEACSEGVPMVCCPRHGDQFGNMRYVCDVWKVGTELVGEQLERGQVKAAIDRLFGTKEGEEIKERMKEFKIAAAKGIGIGVDVDETASPRTDLTDLVDLIKSF	C(1.0)	–
A281L: bx9 SEQ ID NO:1 mutant (protein, Zea mays) MASSRTGAGAGGRVVVFPFPFQGHFNPVMRLARALHARGLAITVFHSGALDPADYPADYRFVPVTVEADPKLLASEDIAAIVTTLNASCDAPFRARLSALLAAEGRDSVRCVFTDVSWNAVLTASSDLGVPALGMMTASAASLRDYMAYRTLIDKGYLPVKEERKEDPVPELPPYLVKDLLRVDTSDLEEFAELLARTVTAARRASGLIFNTFPLIETDTLAEIHKALSVPVFAVAPLNKLVPTATASLHGVVQADRGCLQWLDTQQPGSVLYVSFGSMALMDPHEFVELAWGLADSKRPFVWVVRPNLIRGFESGALPDGVEDEVRGRGIVVAWAPQEEVLAHPAVGGFLTHNGWNSTVEAISEGVPMVCCPRHGDQFGNMRYVCDVWKVGTELVGEQLERGQVKAAIDRLFGTKEGEEIKERMKEFKIAAAKGIGIGVDVDETASPRTDLTDLVDLIKSF	L(1.5)	–
A281V: bx9 SEQ ID NO:1 mutant (protein, Zea mays) MASSRTGAGAGGRVVVFPFPFQGHFNPVMRLARALHARGLAITVFHSGALDPADYPADYRFVPVTVEADPKLLASEDIAAIVTTLNASCDAPFRARLSALLAAEGRDSVRCVFTDVSWNAVLTASSDLGVPALGMMTASAASLRDYMAYRTLIDKGYLPVKEERKEDPVPELPPYLVKDLLRVDTSDLEEFAELLARTVTAARRASGLIFNTFPLIETDTLAEIHKALSVPVFAVAPLNKLVPTATASLHGVVQADRGCLQWLDTQQPGSVLYVSFGSMAVMDPHEFVELAWGLADSKRPFVWVVRPNLIRGFESGALPDGVEDEVRGRGIVVAWAPQEEVLAHPAVGGFLTHNGWNSTVEAISEGVPMVCCPRHGDQFGNMRYVCDVWKVGTELVGEQLERGQVKAAIDRLFGTKEGEEIKERMKEFKIAAAKGIGIGVDVDETASPRTDLTDLVDLIKSF	S,T,V(1.0)	–
A334K: bx9 SEQ ID NO:1 mutant (protein, Zea mays) MASSRTGAGAGGRVVVFPFPFQGHFNPVMRLARALHARGLAITVFHSGALDPADYPADYRFVPVTVEADPKLLASEDIAAIVTTLNASCDAPFRARLSALLAAEGRDSVRCVFTDVSWNAVLTASSDLGVPALGMMTASAASLRDYMAYRTLIDKGYLPVKEERKEDPVPELPPYLVKDLLRVDTSDLEEFAELLARTVTAARRASGLIFNTFPLIETDTLAEIHKALSVPVFAVAPLNKLVPTATASLHGVVQADRGCLQWLDTQQPGSVLYVSFGSMAAMDPHEFVELAWGLADSKRPFVWVVRPNLIRGFESGALPDGVEDEVRGRGIVVKWAPQEEVLAHPAVGGFLTHNGWNSTVEAISEGVPMVCCPRHGDQFGNMRYVCDVWKVGTELVGEQLERGQVKAAIDRLFGTKEGEEIKERMKEFKIAAAKGIGIGVDVDETASPRTDLTDLVDLIKSF	–	K,R(2.0)
A281T: bx9 SEQ ID NO:1 mutant (protein, Zea mays) MASSRTGAGAGGRVVVFPFPFQGHFNPVMRLARALHARGLAITVFHSGALDPADYPADYRFVPVTVEADPKLLASEDIAAIVTTLNASCDAPFRARLSALLAAEGRDSVRCVFTDVSWNAVLTASSDLGVPALGMMTASAASLRDYMAYRTLIDKGYLPVKEERKEDPVPELPPYLVKDLLRVDTSDLEEFAELLARTVTAARRASGLIFNTFPLIETDTLAEIHKALSVPVFAVAPLNKLVPTATASLHGVVQADRGCLQWLDTQQPGSVLYVSFGSMATMDPHEFVELAWGLADSKRPFVWVVRPNLIRGFESGALPDGVEDEVRGRGIVVAWAPQEEVLAHPAVGGFLTHNGWNSTVEAISEGVPMVCCPRHGDQFGNMRYVCDVWKVGTELVGEQLERGQVKAAIDRLFGTKEGEEIKERMKEFKIAAAKGIGIGVDVDETASPRTDLTDLVDLIKSF	S,T,V(1.0)	–
I363V: bx9 SEQ ID NO:1 mutant (protein, Zea mays) MASSRTGAGAGGRVVVFPFPFQGHFNPVMRLARALHARGLAITVFHSGALDPADYPADYRFVPVTVEADPKLLASEDIAAIVTTLNASCDAPFRARLSALLAAEGRDSVRCVFTDVSWNAVLTASSDLGVPALGMMTASAASLRDYMAYRTLIDKGYLPVKEERKEDPVPELPPYLVKDLLRVDTSDLEEFAELLARTVTAARRASGLIFNTFPLIETDTLAEIHKALSVPVFAVAPLNKLVPTATASLHGVVQADRGCLQWLDTQQPGSVLYVSFGSMAAMDPHEFVELAWGLADSKRPFVWVVRPNLIRGFESGALPDGVEDEVRGRGIVVAWAPQEEVLAHPAVGGFLTHNGWNSTVEAVSEGVPMVCCPRHGDQFGNMRYVCDVWKVGTELVGEQLERGQVKAAIDRLFGTKEGEEIKERMKEFKIAAAKGIGIGVDVDETASPRTDLTDLVDLIKSF	–	A,V(2.0)
I363A: bx9 SEQ ID NO:1 mutant (protein, Zea mays) MASSRTGAGAGGRVVVFPFPFQGHFNPVMRLARALHARGLAITVFHSGALDPADYPADYRFVPVTVEADPKLLASEDIAAIVTTLNASCDAPFRARLSALLAAEGRDSVRCVFTDVSWNAVLTASSDLGVPALGMMTASAASLRDYMAYRTLIDKGYLPVKEERKEDPVPELPPYLVKDLLRVDTSDLEEFAELLARTVTAARRASGLIFNTFPLIETDTLAEIHKALSVPVFAVAPLNKLVPTATASLHGVVQADRGCLQWLDTQQPGSVLYVSFGSMAAMDPHEFVELAWGLADSKRPFVWVVRPNLIRGFESGALPDGVEDEVRGRGIVVAWAPQEEVLAHPAVGGFLTHNGWNSTVEAASEGVPMVCCPRHGDQFGNMRYVCDVWKVGTELVGEQLERGQVKAAIDRLFGTKEGEEIKERMKEFKIAAAKGIGIGVDVDETASPRTDLTDLVDLIKSF	–	A,V(2.0)
